Laboratory results: patent publication US20180305450A1 (AstraZeneca / MedImmune, published 2018)
Substitutions are numbered along the chain they refer to. Names may count otherwise.

Columns and labels:
[1] = target: T1, recombinant biotinylated human PAR2 extracellular domain (residues 1-75), N-terminal AviTag, C-terminal Flag … (human, UniProt P55085 26-75, biotin on the AviTag (enzymatic biotinylation)); experiment: HTRF competition with Dylight650-Par0067 IgG, IgG
T1 construct: also called Bio-human-PAR2 ECD; human PAR2 ECD; not shown: N-terminal AviTag (Avidity LLC); C-terminal Flag and poly Histidine tags
Experimental: (§1) Parent Par0067 IgG (used as a reference/control in all assays) was pre-diluted to give a 2000 nM stock in each of the two different pH assay buffers (in order to give a top final assay IgG concentration of 500 nM). All test, or other reference/control IgG were tested from a top final assay concentration of ¼ of the neat undiluted sample (i.e. no pre-dilution step was performed). Duplicate 11 point 1:3 serial dilutions then were prepared on 384 well polypropylene Greiner plates in each of the two assay buffers (pH 7.4 & 6.0). 5 μl per well was transferred from the relevant pH IgG dilution plate to the corresponding assay plate (pH 7.4 and pH 6.0). 5 ul of the appropriate pH assay buffer was added to the total and non-specific wells.
(§2) For multipoint dose response curves % Specific Binding values were plotted versus test purified antibody concentration (scFv or IgG). IC₅₀ values were determined via a sigmoidal dose response inhibition variable slope curve fit (4 parameter logistic equation) using Graphpad Prism Software.

[2] = target: T1, recombinant biotinylated human PAR2 …; experiment: HTRF competition with Dylight650-Par0067 IgG, pH 7.4, IgG
Experimental: as §1, §2

[3] = target: T2, human PAR2 on cells (endogenous in A549 cells; overexpressed in 1321N1-hPAR2-c18 cells) (human, UniProt P55085 37-397); experiment: cell-based or functional assay
T2 sequence: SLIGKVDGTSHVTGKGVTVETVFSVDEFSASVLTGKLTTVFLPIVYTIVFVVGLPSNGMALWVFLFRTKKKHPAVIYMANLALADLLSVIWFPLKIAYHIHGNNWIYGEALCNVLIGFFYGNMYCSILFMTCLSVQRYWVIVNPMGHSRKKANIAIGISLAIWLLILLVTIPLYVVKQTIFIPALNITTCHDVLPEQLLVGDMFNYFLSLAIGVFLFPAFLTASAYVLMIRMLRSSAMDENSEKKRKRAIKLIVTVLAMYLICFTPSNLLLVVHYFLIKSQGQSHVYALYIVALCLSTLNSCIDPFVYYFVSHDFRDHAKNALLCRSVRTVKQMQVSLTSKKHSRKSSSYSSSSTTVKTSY

[4] = target: T1, recombinant biotinylated human PAR2 …; experiment: HTRF competition with Dylight650-Par0067 IgG, pH 6.0, IgG
Experimental: as §1, §2

[5] = target: T1, recombinant biotinylated human PAR2 …; experiment: Biacore SPR 25 C, pH 6.0; pH 6.0; human PAR2
Experimental: (§3) The experiments were carried out using recombinant human, rat and cynomolgus PAR2 with an N-terminal Avi tag and C-terminal Flag-His tags.
(§4) Streptavidin was covalently immobilised to a C1 chip surface using standard amine coupling techniques at a concentration of 4 μg/ml in 10 mM Sodium acetate pH 4.5. A final streptavidin surface of approximately 30-100 RUs was achieved. Recombinant biotinylated PAR2 species (produced in-house) were titrated onto the streptavidin chip surface at 4 μg/ml in HBS-EP+ buffer to enable Fab binding at saturation (Rₘₐₓ). This low level of analyte binding ensured minimal mass transport effects.
(§5) The anti-PAR2 Fabs were serially diluted (0.39 nM-25 nM) in HBS-EP+ buffer pH 7.4 or MES-BS-EP+ pH 6.0 buffer or in MES-BS-EP+ pH 5.6 buffer and flowed over the chip at 50 μl/min, with 3 minutes association and up to 30 minutes dissociation. Multiple buffer-only injections were made under the same conditions to allow for double reference subtraction of the final sensorgram sets, which were analysed using the BiaEval software (version 2.0.1). The chip surface was fully regenerated with pulses of 4 M MgCl₂.

[6] = target: T1, recombinant biotinylated human PAR2 …; experiment: Biacore SPR 25 C, pH 7.4
Experimental: as §3, §4, §5

[7] = target: T3, recombinant biotinylated rat PAR2 extracellular residues 1-75, N-terminal AviTag, C-terminal Flag and poly … (rat, UniProt Q63645 26-75, not fully specified; biotin on the AviTag (enzymatic biotinylation)); experiment: Biacore SPR 25 C, pH 7.4
T3 construct: range 1-75; not shown: N-terminal AviTag (Avidity LLC); C-terminal Flag and poly Histidine tags
T3 chain (looked up): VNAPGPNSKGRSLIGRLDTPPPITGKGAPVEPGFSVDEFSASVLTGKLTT
Experimental: as §3, §4, §5

[8] = target: T1, recombinant biotinylated human PAR2 …; experiment: Biacore SPR 25 C, pH 6.0
Experimental: as §3, §4, §5

[9] = target: T3, recombinant biotinylated rat PAR2 …; experiment: Biacore SPR 25 C, pH 6.0
Experimental: as §3, §4, §5

[10] = target: T1, recombinant biotinylated human PAR2 …; experiment: Biacore SPR 25 C, pH 6.0; remark: listed apart in the source
Experimental: as §3, §4, §5

[11] = target: T3, recombinant biotinylated rat PAR2 …; experiment: Biacore SPR 25 C, pH 6.0
Experimental: as §3, §4, §5

[12] = target: T1, recombinant biotinylated human PAR2 …; experiment: Biacore SPR 25 C, pH 7.4; remark: listed apart in the source
Experimental: as §3, §4, §5

[13] = target: T3, recombinant biotinylated rat PAR2 …; experiment: Biacore SPR 25 C, pH 7.4
Experimental: as §3, §4, §5

T1 sequence (P55085 26-75): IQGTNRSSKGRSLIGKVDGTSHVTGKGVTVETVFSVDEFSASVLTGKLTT

B1: PaB670129 IgG1TM (antibody, V domains shown)
VH: EVQLLESGGGLVQPGGSLRLSCAASGFTFSSYAMNWVRQAPGKGLEWVSTISYHGSHISYHDSVHHRFTISRDNSKNTLYLQMNSLRAEDTAVYYCARIHHDPMDVWGQGTLVTVSS
VL: SIELTQPPSVSVSPGQTASITCSGDNLGKKYVQWYQQKPGQSPVLVIYDDSNRPSGIPERFSGSNSGNTATLTISGTQAMDEADYYCQTWDGNPTTGETNVFGGGTKLTVL
notes: IgG1-TM (L234F, L235E, P331S), human lambda light chain; also called ZZ1RUE-F02
Fold IC50 pH 7.4 (Variant v Par0067) [1]: 67.2 fold
IC50 [2]: 56.1 nM
IC50 (read off the curve); calcium response to trypsin in presence of PaB670129, human A549 cells [3]: ~0.1 nM

B2: PaB670160 IgG (antibody, V domains shown)
VH: B1 VH with H54S, H57L, H61A, H65K, H66G, H100N
VL: B1 VL with Q88H, N93H, P94H, V101H
notes: IgG1-TM (L234F, L235E, P331S), human lambda light chain
Fold IC50 (pH 6.0 v pH 7.4) [1]: 37.5 fold
Fold IC50 pH 7.4 (Variant v Par0067) [1]: 20.2 fold
IC50 [2]: 16.9 nM
IC50 [4]: 634 nM

B3: PaB670158 IgG (antibody, V domains shown)
VH: B1 VH with S56H, H61A, V64H, H100N, H101N
VL: B1 VL with N93H, P94H, T95H, V101H
notes: as for B2
Fold IC50 (pH 6.0 v pH 7.4) [1]: 69.8 fold
Fold IC50 pH 7.4 (Variant v Par0067) [1]: 8.2 fold
IC50 [2]: 6.8 nM
IC50 [4]: 477 nM

B4: PaB670156 IgG (antibody, V domains shown)
VH: B1 VH with H54S, H57L, H61A, H65K, H66G, H100N
VL: B1 VL with N93H, P94H, T95H, V101H
notes: as for B2
Fold IC50 (pH 6.0 v pH 7.4) [1]: 27.2 fold
Fold IC50 pH 7.4 (Variant v Par0067) [1]: 8.4 fold
IC50 [2]: 7 nM
IC50 [4]: 190 nM

B5: PaB670136 Fab (Fab, V domains shown)
VH: B1 VH with S56H, H61A, V64H, V106H
VL: B1 VL
notes: Fab; also called ZZ1RUF-A01
koff [5]: 14.9 s⁻¹
kon [5]: 7.92e+08 M⁻¹ s⁻¹
Kd [6]: 0.957 nM
koff [6]: 0.00495 s⁻¹
kon [6]: 5.17e+06 M⁻¹ s⁻¹
Kd [7]: 4.15 nM
koff [7]: 0.0314 s⁻¹
kon [7]: 7.57e+06 M⁻¹ s⁻¹
Kd [8]: 18.8 nM
Kd [9]: 37.5 nM
koff [9]: 0.0589 s⁻¹
kon [9]: 1.57e+06 M⁻¹ s⁻¹

B6: PaB670048 Fab (Fab, V domains shown)
VH: B1 VH with H54S, H57L, H61A, H65K, H66G, V106H
VL: B1 VL
notes: Fab; also called ZZ1KX4-E11
Kd [10]: 2.49 nM
koff [10]: 0.00458 s⁻¹
kon [10]: 1.84e+06 M⁻¹ s⁻¹
Kd [11]: 4.48 nM
koff [11]: 0.0217 s⁻¹
kon [11]: 4.84e+06 M⁻¹ s⁻¹
Kd [6]: 0.124 nM
koff [6]: 0.000519 s⁻¹
kon [6]: 4.2e+06 M⁻¹ s⁻¹
Kd [7]: 0.586 nM
koff [7]: 0.00307 s⁻¹
kon [7]: 5.24e+06 M⁻¹ s⁻¹
Kd [12]: 0.104 nM
koff [12]: 0.00058 s⁻¹
kon [12]: 5.59e+06 M⁻¹ s⁻¹
Kd [13]: 0.435 nM
koff [13]: 0.00325 s⁻¹
kon [13]: 7.46e+06 M⁻¹ s⁻¹
Kd [8]: 2.57 nM
koff [8]: 0.00497 s⁻¹
kon [8]: 1.94e+06 M⁻¹ s⁻¹
Kd [9]: 5.12 nM
koff [9]: 0.0205 s⁻¹
kon [9]: 4e+06 M⁻¹ s⁻¹

B7: PaB670157 IgG (antibody, V domains shown)
VH: B1 VH with H54S, H57L, H61A, H65K, H66G
VL: B1 VL with N93H, P94H, T95H, V101H
notes: as for B2
Fold IC50 (pH 6.0 v pH 7.4) [1]: 59 fold
Fold IC50 pH 7.4 (Variant v Par0067) [1]: 18.9 fold
IC50 [2]: 15.8 nM
IC50 [4]: 932 nM

B8: PaB670162 IgG (antibody, V domains shown)
VH: B1 VH with S56H, H61A, V64H, H100N, H101N
VL: B1 VL with Q88H, N93H, P94H, V101H
notes: as for B2
Fold IC50 (pH 6.0 v pH 7.4) [1]: 79.5 fold
Fold IC50 pH 7.4 (Variant v Par0067) [1]: 13.7 fold
IC50 [2]: 11.4 nM
IC50 [4]: 906 nM

B9: PaB670161 IgG (antibody, V domains shown)
VH: B1 VH with H54S, H57L, H61A, H65K, H66G
VL: B1 VL with Q88H, N93H, P94H, V101H
notes: as for B2
Fold IC50 (pH 6.0 v pH 7.4) [1]: 39.6 fold
Fold IC50 pH 7.4 (Variant v Par0067) [1]: 57.4 fold
IC50 [2]: 47.9 nM
IC50 [4]: 1900 nM

B10: PaB670153 IgG (antibody, V domains shown)
VH: B1 VH with S56H, H61A, V64H, H100N, H101N
VL: B1 VL with Q88H, G92H, N93H, P94H, T99H
notes: as for B2
Fold IC50 (pH 6.0 v pH 7.4) [1]: 17.6 fold
Fold IC50 pH 7.4 (Variant v Par0067) [1]: 111 fold
IC50 [2]: 93 nM
IC50 [4]: 1640 nM
